Measured values as given in patent publication US9187525B2, “Methods of treating ophthalmic diseases using NPR-B agonists” (Shire Orphan Therapies GmbH, dated 2015).
Numbered stars: 1 amine (or outer) side, 2 acyl side, 3 side chain; on linkers, the order of the positions; unused ones are H or OH. Square brackets hold non-standard residues; d marks the D form. Primed or numbered codes have the meaning given here. Ends that are not written are not given here. * marks the point of attachment. Pro(trans-4-NH2) = O=C([C@@H]1C[C@@H](N[*:3])CN1[*:1])[*:2]; Sni = (S)-nipecotic acid, O=C([C@H]1CCCN([*:1])C1)[*:2]; Pro(trans-4-Ph) = O=C(O)[C@@H]1C[C@@H](c2ccccc2)CN1; Tyr(3-I) = N[C@@H](Cc1ccc(O)c(I)c1)C(=O)O; Cpp = rac-(3R,4S)-cis-methanoproline; NMeR = CN[C@@H](CCCNC(=N)N)C(=O)O; dDap(Me2) = CN(C)C[C@@H](N)C(=O)O; Hyp = O=C(O)[C@@H]1C[C@@H](O)CN1; Gly(cPr) = N[C@H](C(=O)O)C1CC1; Aoc(2) = CCCCCC[C@H](N)C(=O)O; NMeL = CN[C@@H](CC(C)C)C(=O)O; Chg = N[C@H](C(=O)O)C1CCCCC1; Tle = CC(C)(C)[C@H](N)C(=O)O; Ac6c = NC1(C(=O)O)CCCCC1; Octanoyl = CCCCCCCC(=O)*; Thz = O=C(O)[C@@H]1CSCN1; Api = NC1(C(=O)O)CCNCC1; Pip′ = not defined here; dAze = O=C(O)[C@H]1CCN1; Deg = CCC(N)(CC)C(=O)O; Oct = not defined here; GABA = NCCCC(=O)O

T1: natriuretic peptide receptor-B (human)
T1 chain: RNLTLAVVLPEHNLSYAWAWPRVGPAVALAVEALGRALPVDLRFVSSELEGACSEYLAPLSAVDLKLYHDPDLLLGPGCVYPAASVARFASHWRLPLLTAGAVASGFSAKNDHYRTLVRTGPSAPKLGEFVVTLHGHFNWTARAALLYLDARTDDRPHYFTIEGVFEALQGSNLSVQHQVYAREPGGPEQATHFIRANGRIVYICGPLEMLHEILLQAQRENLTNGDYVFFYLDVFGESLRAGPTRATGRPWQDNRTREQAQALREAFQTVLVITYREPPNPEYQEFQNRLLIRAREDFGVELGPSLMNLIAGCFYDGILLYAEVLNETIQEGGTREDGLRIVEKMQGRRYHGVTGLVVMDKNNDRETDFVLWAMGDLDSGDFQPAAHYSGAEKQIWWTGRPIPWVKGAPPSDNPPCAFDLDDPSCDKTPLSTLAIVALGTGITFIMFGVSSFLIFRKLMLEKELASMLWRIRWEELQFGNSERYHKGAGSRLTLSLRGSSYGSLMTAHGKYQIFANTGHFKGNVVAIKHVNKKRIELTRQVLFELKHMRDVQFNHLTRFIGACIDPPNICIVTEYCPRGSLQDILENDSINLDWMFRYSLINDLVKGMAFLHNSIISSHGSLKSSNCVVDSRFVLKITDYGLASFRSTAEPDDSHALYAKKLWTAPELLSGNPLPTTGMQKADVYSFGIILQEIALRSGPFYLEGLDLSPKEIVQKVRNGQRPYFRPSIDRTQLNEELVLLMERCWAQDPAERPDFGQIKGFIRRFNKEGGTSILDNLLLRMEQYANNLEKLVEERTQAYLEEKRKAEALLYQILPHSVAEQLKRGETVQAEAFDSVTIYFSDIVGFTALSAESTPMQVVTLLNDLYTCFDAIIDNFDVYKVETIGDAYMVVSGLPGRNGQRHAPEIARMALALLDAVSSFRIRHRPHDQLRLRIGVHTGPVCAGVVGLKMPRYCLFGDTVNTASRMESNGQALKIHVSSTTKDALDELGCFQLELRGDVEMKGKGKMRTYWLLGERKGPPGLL

B1: JAL-0654 (peptide)
peptide: XXFGLKLDRI
HELM: PEPTIDE1{[CCCCCC(=O)[*:2]].[O=C(C1CCCN([*:1])C1)[*:2]].F.G.L.K.L.D.R.I.[am]}$$$$V2.0
SMILES: CCCCCC(=O)N1CCCC(C(=O)N[C@@H](Cc2ccccc2)C(=O)NCC(=O)N[C@@H](CC(C)C)C(=O)N[C@@H](CCCCN)C(=O)N[C@@H](CC(C)C)C(=O)N[C@@H](CC(=O)O)C(=O)N[C@@H](CCCNC(=N)N)C(=O)N[C@H](C(N)=O)[C@@H](C)CC)C1
B2: JAL-1460 (peptide)
peptide: Octanoyl-[dA]FXL[Pro(trans-4-NH2)][NMeL]DRI-NH2
modifications: not fully specified (some residues); printed as Occ-ala-Phe-dap(6238)2-Leu-Tap-Nml-Asp-Arg-Ile-NH2
B3: JAL-0653 (peptide)
peptide: XXFGLKLDRI
HELM: PEPTIDE1{[CCCCCC(=O)[*:2]].[O=C([C@H]1CC[C@H](CN[*:1])CC1)[*:2]].F.G.L.K.L.D.R.I.[am]}$$$$V2.0
SMILES: CCCCCC(=O)NC[C@H]1CC[C@H](C(=O)N[C@@H](Cc2ccccc2)C(=O)NCC(=O)N[C@@H](CC(C)C)C(=O)N[C@@H](CCCCN)C(=O)N[C@@H](CC(C)C)C(=O)N[C@@H](CC(=O)O)C(=O)N[C@@H](CCCNC(=N)N)C(=O)N[C@H](C(N)=O)[C@@H](C)CC)CC1
B4: JAL-1429 (peptide)
peptide: [Oct][Sni]F[dDap(Me2)]L[Hyp][NMeL]DRI-NH2
modifications: reading uncertain; also: printed as Oct-Sni-Phe-dap(Me2)-Leu-Hyp-Nml-Asp-Arg-Ile-NH2
B5: JAL-0652 (peptide)
peptide: XXFGLKLDRI
HELM: PEPTIDE1{[CCCCCC(=O)[*:2]].[O=C(Cn1cccc(N[*:1])c1=O)[*:2]].F.G.L.K.L.D.R.I.[am]}$$$$V2.0
SMILES: CCCCCC(=O)Nc1cccn(CC(=O)N[C@@H](Cc2ccccc2)C(=O)NCC(=O)N[C@@H](CC(C)C)C(=O)N[C@@H](CCCCN)C(=O)N[C@@H](CC(C)C)C(=O)N[C@@H](CC(=O)O)C(=O)N[C@@H](CCCNC(=N)N)C(=O)N[C@H](C(N)=O)[C@@H](C)CC)c1=O

Biological target: T1, natriuretic peptide receptor-B
Assay: cell-based or functional assay

Row | Binder | EC50 group, cGMP in GTM-3 cells
1 | Octanoyl-AFLL[Hyp][NMeL]D[Cpp]I-NH2 (also: lower-case ala, leu: meaning not given here) [JAL-1443] | ≤ 5 µM
2 | Octanoyl-AFLL[Hyp][NMeL][Chg]RI-NH2 (also: lower-case ala, leu: meaning not given here) [JAL-1421] | ≤ 15 µM
3 | Octanoyl-AFLL[Pro(trans-4-NH2)][NMeL]DPI-NH2 (also: lower-case ala, leu: meaning not given here) [JAL-1450] | ≤ 5 µM
4 | [Tyr(3-I)][Aoc(2)]AFRL[Hyp][NMeL]DRI-NH2 (also: lower-case ala, arg: meaning not given here) [JAL-1430] | ≤ 1 µM
5 | B1 | ≤ 15 µM
6 | Octanoyl-AFLL[Hyp][NMeL]DPI-NH2 (also: lower-case ala, leu: meaning not given here) [JAL-1418] | ≤ 5 µM
7 | Ac-[Tyr(3-I)][GABA][Aoc(2)]AFRL[Hyp][NMeL]DRI-NH2 (also: lower-case ala, arg: meaning not given here) [JAL-1432] | ≤ 15 µM
8 | B2 | ≤ 5 µM
9 | Octanoyl-[Sni]FLL[Hyp][NMeL]DPI-NH2 (also: lower-case leu: meaning not given here) [JAL-1436] | ≤ 5 µM
10 | Octanoyl-AFLL[Hyp][NMeL][Gly(cPr)]RI-NH2 (also: lower-case ala, leu: meaning not given here) [JAL-1424] | ≤ 15 µM
11 | Octanoyl-AFRL[Hyp][NMeL]DPI-NH2 (also: lower-case ala, arg: meaning not given here) [JAL-1434] | ≤ 5 µM
12 | Octanoyl-[dA]F[dL]L[Hyp][NMeL]D[Pro(trans-4-Ph)]I-NH2 [JAL-1456] | ≤ 15 µM
13 | Octanoyl-AFLL[Hyp][NMeL]D[Hyp]I-NH2 (also: lower-case ala, leu: meaning not given here) [JAL-1441] | ≤ 15 µM
14 | Octanoyl-[dA]F[dL]L[Hyp][NMeL]D[Ac6c]I-NH2 [JAL-1457] | ≤ 15 µM
15 | Octanoyl-AFLL[Hyp][NMeL]D[NMeR]I-NH2 (also: lower-case ala, leu: meaning not given here) [JAL-1417] | ≤ 1 µM
16 | Octanoyl-AF[Api]L[Hyp][NMeL]DPI-NH2 (also: lower-case ala: meaning not given here) [JAL-1451] | ≤ 5 µM

Row | Binder | EC50 group, cGMP in GTM-3 cells
17 | [Tyr(3-I)][GABA][Aoc(2)]AFRL[Hyp][NMeL]DRI-NH2 (also: lower-case ala, arg: meaning not given here) [JAL-1431] | ≤ 15 µM
18 | Octanoyl-[dA]F[Api]L[Pro(trans-4-NH2)][NMeL]DPI-NH2 [JAL-1452] | ≤ 1 µM
19 | Octanoyl-AF[Api]L[Hyp][NMeL]DPI-NH2 (also: lower-case ala: meaning not given here) [JAL-1435] | ≤ 5 µM
20 | B3 | ≤ 15 µM
21 | Octanoyl-[dA]F[dL]L[Hyp][NMeL]D[Pro(trans-4-NH2)]I-NH2 [JAL-1459] | ≤ 15 µM
22 | Octanoyl-AFLL[Hyp][NMeL]D[dAze]I-NH2 (also: lower-case ala, leu: meaning not given here) [JAL-1437] | ≤ 5 µM
23 | Octanoyl-[dA]F[Ac6c]L[Pro(trans-4-NH2)][NMeL]DRI-NH2 [JAL-1454] | ≤ 1 µM
24 | Octanoyl-AFLL[Hyp][NMeL]DR[Deg]-NH2 (also: lower-case ala, leu: meaning not given here) [JAL-1416] | ≤ 1 µM
25 | B4 | ≤ 1 µM
26 | Octanoyl-[dA]F[dDap(Me2)]L[Pro(trans-4-NH2)][NMeL]DPI-NH2 [JAL-1453] | ≤ 1 µM
27 | Octanoyl-AFLL[Hyp][NMeL]D[Pip′]I-NH2 (also: lower-case ala, leu: meaning not given here) [JAL-1438] | ≤ 5 µM
28 | Octanoyl-[dA]F[dL]L[Hyp][NMeL]D[Api]I-NH2 [JAL-1458] | ≤ 5 µM
29 | Octanoyl-AFLL[Hyp][NMeL]D[Thz]I-NH2 (also: lower-case ala, leu: meaning not given here) [JAL-1442] | ≤ 5 µM
30 | B5 | ≤ 15 µM
31 | Octanoyl-AFLL[Hyp][NMeL][Tle]RI-NH2 (also: lower-case ala, leu: meaning not given here) [JAL-1420] | ≤ 15 µM
